# Reference: patent US12590158 (XIYUAN ANJIAN MEDICINE SHANGHAI, dated 2026)
# Substitutions are numbered along the chain they refer to.
# B1: anti-TrkA antibody 5A3 (antibody, V domains shown)
# VH: QVQLQQSGAELMKPGASVKISCKAIGYTFSRYWIEWVKQRPGHGLEWIGEILPGRGVTNYNENFKGKATFTVDISSTTTYIQFSSLTSEDSAVYYCARSNYGDYDFWGQGTSLTVSS
# VL: QTVVTQESALTTSPGETVTLTCRSSSGAVTTSNHANWVQEKPDHLFTSLMGGTNNRAPGVPARFSGSLIGDKAALTITGAQTEDEAIYFCALWYSNHWVFGGGTKLTVL
# notes: Murine monoclonal antibody purified from hybridoma medium by protein G
# B2: anti-TrkA antibody 11G8 (antibody, V domains shown)
# VH: QVQLQQPGAELVKPGASVKLSCKASGYTFTSYWMHWVKQRPGQGLEWIGEINPNNGLTNYDEKFKTKATLTIDKSSRTAYIQLSSLTSEDSAVYYCAKYGNYVAFAFWGQGTLVTVSA
# VL: DIQMTQSPASLSATVGETVTITCRASENIYSYVAWYQQKQGKSPQLLVHNAKTLAEGVPSRFSGSGSGTQFSLKINGLHPEDFGSYYCQHHYGIPLTFGAGTKLELK
# notes: as for B1
# B3: anti-TrkA antibody 26E9 (antibody, V domains shown)
# VH: QVQLQQPGAELVKPGASVKLSCKSSGYTFTNYWMHWVKQRPGQGLEWIGEIYPSNGRTNYNEKFKNRATLTVDISSSTAYMQLSSLTSEDSAVYYCARSRYDPMEDWGQGTSVTVSS
# VL: QIVLTQSPAIMSASPGEKVTMTCSASSSVGYMHWYQQKSGTSPKRWIYDTSKLASGVPTRFSGSGSGTSYSLTISSMEAEDAATYYCQQWSSIPLTFGSGTKLEIK
# notes: as for B1
# B4: anti-TrkA antibody 42F5 (antibody, V domains shown)
# VH: B3 VH with K38R, S54N, T58V
# VL: B3 VL with I2V, Y86F, K102R
# notes: as for B1
# B5: anti-TrkA antibody 33H5 (antibody, V domains shown)
# VH: B2 VH with K19Q, M34I, D61I, T66N, R77N, I81M, S85G, S88P, F107Y
# VL: B2 VL with T14S, E17D, S31T, V33L, A51T, N76S, G77S, H79Q, S85T, I94V
# notes: as for B1
# B6: humanized anti-TrkA antibody 42F5-15 (antibody, V domains shown)
# VH: QVQLVQSGAEVKKPGASVKVSCKSSGYTFTNYWMHWVRQAPGQGLEWMGEIYPNNARVNYNEKFKNRVTMTVDISISTAYMELSRLRSDDTAVYYCARSRYDPMEDWGQGTTVTVSS
# VL: DVQLTQSPSSLSASVGDRVTITCSASSSVGYMHWYQQKPGKAPKRLIYDTSKLASGVPSRFSGSGSGTDYTLTISSLQPEDFATYFCQQWSSIPLTFGQGTRLEIK
# notes: 42F5-01 with NG55-56 of the VH mutated to NA55-56
# Molecular target: T1, full-length human TrkA expressed on cells (human, UniProt P04629 33-796)
# Assay: cell-based or functional assay
# T1 sequence (P04629 33-796): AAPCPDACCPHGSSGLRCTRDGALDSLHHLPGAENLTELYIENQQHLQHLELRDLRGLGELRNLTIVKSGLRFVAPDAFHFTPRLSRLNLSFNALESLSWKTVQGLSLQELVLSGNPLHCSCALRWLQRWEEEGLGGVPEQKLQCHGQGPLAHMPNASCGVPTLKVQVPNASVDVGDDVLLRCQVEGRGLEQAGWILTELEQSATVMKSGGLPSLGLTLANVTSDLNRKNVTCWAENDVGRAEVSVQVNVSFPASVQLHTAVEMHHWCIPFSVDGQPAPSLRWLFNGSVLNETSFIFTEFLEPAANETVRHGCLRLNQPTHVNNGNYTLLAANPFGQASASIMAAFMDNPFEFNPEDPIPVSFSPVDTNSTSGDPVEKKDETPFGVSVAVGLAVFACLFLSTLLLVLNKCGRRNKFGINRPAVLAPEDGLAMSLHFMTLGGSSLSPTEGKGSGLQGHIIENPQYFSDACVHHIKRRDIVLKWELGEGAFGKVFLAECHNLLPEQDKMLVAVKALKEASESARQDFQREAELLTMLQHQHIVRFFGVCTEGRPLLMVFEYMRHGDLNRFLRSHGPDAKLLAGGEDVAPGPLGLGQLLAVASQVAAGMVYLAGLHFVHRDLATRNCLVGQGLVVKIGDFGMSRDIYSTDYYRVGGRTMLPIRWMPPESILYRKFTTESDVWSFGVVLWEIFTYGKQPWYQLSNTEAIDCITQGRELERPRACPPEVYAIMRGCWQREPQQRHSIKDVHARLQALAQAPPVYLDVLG
row,Binder,inhibition of NGF-induced TrkA/Ba/F3 cell proliferation at 2.5 µg/mL (16.67 nM) or higher [%]
1,B1,100
2,B2,100
3,B3,100
4,B4,100
5,B5,100

# Molecular target: T2, TrkA extracellular region (33-417) protein comprising human Fc (ACROBiosystems TRA-H5259) (human, UniProt P04629 33-417)
# T2 construct: range 33-417; Bought fusion protein; also called human TrkA (33-417); human TrkA extracellular region
# Assay: ELISA, coated human TrkA (33-417)-hFc, anti-mouse Fc-HRP
# Procedure: (§1) Example 2: ELISA Detection of the Binding of Murine Anti-TrkA Antibodies to Human TrkA The binding abilities of the anti-TrkA antibodies were detected by using a TrkA extracellular region (33-417) protein comprising human Fc (Beijing ACROBiosystems Co., Ltd., TRA-H5259). Each well of a 96-well microtiter plate was coated with 50 ng of human TrkA, washed and blocked, and then added with serially diluted antibodies, and incubated at room temperature for 1 hour. After washing three times, horseradish peroxidase-conjugated goat anti-mouse Fc antibody (Biolegend, 405306) was added and incubated at room temperature for 1 hour. After washing three time, tetramethylbenzidine (TMB, Biolegend, 421101) was added for color development. 1M HCl was used to terminate the color development, and the absorbance values were read at 450 nm with a microplate reader.
# T2 sequence (P04629 33-417 limits assumed): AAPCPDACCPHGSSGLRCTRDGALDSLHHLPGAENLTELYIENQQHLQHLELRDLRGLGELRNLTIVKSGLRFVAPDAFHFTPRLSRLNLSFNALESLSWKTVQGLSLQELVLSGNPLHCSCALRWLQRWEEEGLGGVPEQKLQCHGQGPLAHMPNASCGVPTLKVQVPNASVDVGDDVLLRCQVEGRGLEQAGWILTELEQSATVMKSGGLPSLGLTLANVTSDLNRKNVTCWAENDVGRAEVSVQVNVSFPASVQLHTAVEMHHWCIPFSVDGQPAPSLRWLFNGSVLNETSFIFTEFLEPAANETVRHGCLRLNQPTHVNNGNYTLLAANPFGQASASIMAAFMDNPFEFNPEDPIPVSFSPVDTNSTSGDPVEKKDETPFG
row,Binder,EC50 [nM]
1,B1,0.242
2,B2,0.114
3,B3,0.099
4,B4,0.128
5,B5,0.204

# Molecular target: T3, mouse TrkA extracellular region fusion protein (fused to human Fc) (Yiqiao Shenzhou 51103-M02H) (mouse, UniProt Q3UFB7 34-420)
# T3 construct: extracellular domain; Bought fusion protein
# Assay: ELISA, plate coated with mouse TrkA extracellular region-hFc, HRP goat anti-mouse Fc detection
# Procedure: as §1
# (§2) In addition, the species cross-reactivities of anti-TrkA antibodies were detected with monkey TrkA (Hangzhou Haoyang Biotechnology Co., Ltd., HSP037-05), rat TrkA (Beijing Yiqiao Shenzhou Technology Co., Ltd., 80243-R03H), mouse TrkA (Beijing Yiqiao Shenzhou Technology Co., Ltd., 51103-M02H) extracellular region fusion protein (fused to human Fc).
# T3 sequence (Q3UFB7 34-420, stated change not applied): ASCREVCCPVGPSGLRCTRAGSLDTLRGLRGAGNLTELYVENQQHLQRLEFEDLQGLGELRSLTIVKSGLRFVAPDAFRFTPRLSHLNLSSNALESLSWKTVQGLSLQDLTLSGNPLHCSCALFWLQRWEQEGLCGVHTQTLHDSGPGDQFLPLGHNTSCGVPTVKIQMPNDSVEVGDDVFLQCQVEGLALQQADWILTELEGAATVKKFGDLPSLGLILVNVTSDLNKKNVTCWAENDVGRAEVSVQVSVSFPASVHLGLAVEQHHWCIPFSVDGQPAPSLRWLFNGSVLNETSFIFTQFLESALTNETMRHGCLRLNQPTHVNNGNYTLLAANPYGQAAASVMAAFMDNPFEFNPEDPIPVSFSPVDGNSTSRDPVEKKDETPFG
row,Binder,binding result
1,B1,binds
2,B2,binds
3,B3,binds
4,B4,binds
5,B5,binds

# Molecular target: T4, human TrkC expressed on CHO cells (TrkC/CHO, ThermoFisher K1515) (human, UniProt Q16288 32-839)
# T4 construct: whole, on cells
# Assay: flow cytometry on TrkC/CHO cells, FITC goat anti-human Fc
# Procedure: (§3) CHO-K1 was used as a negative control. The binding of the humanized antibodies to the four cell lines was detected by flow cytometry.
# (§4) The cells were cultured according to the manufacturer's instruction. The cells were harvested in the logarithmic growth phase, re-suspended in flow buffer (PBS+2% FBS, pH 7.4), and added into 96-well plate, 10^5 cells per well (50 µl). 50 µl of 100 µg/mL humanized anti-TrkA antibody was added, incubated at room temperature for 60 min, and centrifuged at 1200 rpm. The supernatant was discarded and the cells were washed 3 times. FITC-labeled goat anti-human Fc antibody (Abeam, ab97224) was diluted to 5 µg/mL with flow buffer and used to re-suspend the cells, incubated at room temperature for 30 min in the dark, centrifuged, and the supernatant was discarded. After washing 3 times, the cells were re-suspended with 7AAD solution (Biolegend, 420403), incubated for 10 min at room temperature, and the binding of the antibody was detected with a flow cytometer (BioRad, ZE5).
# T4 sequence (Q16288 32-839): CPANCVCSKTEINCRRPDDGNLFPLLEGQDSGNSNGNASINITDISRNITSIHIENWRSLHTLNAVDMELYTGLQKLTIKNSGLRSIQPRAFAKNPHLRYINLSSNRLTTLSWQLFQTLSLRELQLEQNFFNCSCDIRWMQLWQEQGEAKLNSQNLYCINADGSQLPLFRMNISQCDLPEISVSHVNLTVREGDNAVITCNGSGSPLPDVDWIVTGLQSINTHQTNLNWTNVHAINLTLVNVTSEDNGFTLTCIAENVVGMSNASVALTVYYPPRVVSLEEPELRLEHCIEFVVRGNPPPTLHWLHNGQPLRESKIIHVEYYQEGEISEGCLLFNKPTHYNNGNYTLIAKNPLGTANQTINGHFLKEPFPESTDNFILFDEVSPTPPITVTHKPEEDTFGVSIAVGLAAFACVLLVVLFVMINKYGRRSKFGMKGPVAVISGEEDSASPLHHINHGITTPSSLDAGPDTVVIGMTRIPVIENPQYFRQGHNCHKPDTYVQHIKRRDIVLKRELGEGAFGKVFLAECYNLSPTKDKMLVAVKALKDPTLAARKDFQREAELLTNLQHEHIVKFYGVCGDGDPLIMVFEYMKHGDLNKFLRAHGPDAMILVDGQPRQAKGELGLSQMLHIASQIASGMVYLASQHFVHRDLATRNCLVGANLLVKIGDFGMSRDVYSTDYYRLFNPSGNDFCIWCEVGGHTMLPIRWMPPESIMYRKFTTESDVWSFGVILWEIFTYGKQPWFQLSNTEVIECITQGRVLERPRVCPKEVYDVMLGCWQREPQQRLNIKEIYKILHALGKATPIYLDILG
row,Binder,binding result
1,B6,no binding

# Molecular target: fusion protein (fused to human Fc) containing only the portion of human TrkA extracellular region that binds NGF (TrkA 192-402) (ACROBiosystems TRA-H5258) (human) (UniProt P04629)
# Assay: ELISA, coated human TrkA (192-402)-hFc
# fusion protein (fused to human Fc) containing only the portion of human TrkA extracellular region that binds NGF (TrkA 192-402) (ACROBiosystems TRA-H5258) (human), sequence (P04629 192-402 limits assumed, form in doubt): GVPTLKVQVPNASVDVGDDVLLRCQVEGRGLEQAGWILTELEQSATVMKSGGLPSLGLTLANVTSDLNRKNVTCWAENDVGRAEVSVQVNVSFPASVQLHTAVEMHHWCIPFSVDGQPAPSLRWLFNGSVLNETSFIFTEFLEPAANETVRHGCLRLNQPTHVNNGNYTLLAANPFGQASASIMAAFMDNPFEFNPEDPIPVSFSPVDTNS
row,Binder,EC50 [nM]
1,B1,0.154
2,B2,0.071
3,B3,0.068
4,B4,0.134
5,B5,0.173

# Molecular target: T2, TrkA extracellular region (33-417) …
# Assay: BLI (ForteBio Octet Red96), TrkA (33-417)-hFc captured on anti-human Fc sensor, antibody in solution
# Description: Example 3: Affinity Assay of Murine Anti-TrkA Antibodies Binding to Human TrkA The affinities of the antibodies were detected with Biomolecular Interaction Detection Platform (ForteBio Octet Red96 (PALL)).
# Human TrkA extracellular region (33-417) protein containing human Fc tag was fixed onto a chip by using an anti-human Fc capture sensor (Fortebio, 18-5088), and then bound to gradient concentrations of anti-TrkA antibody.
Binder,Kd [nM],koff [s⁻¹],kon [M⁻¹ s⁻¹]
B1,0.0155,1.88e-05,1.21e+06
B2,< 0.001,< 1e-07,992000
B3,0.0267,2.46e-05,923000
B4,0.00218,2.07e-06,947000
B5,0.0162,2.09e-05,1.29e+06

# Molecular target: T5, human TrkB extracellular region protein (Yiqiao Shenzhou 10047-H03H) (human, UniProt Q16620 32-430)
# T5 construct: extracellular domain; Bought protein
# Assay: ELISA, plate coated with human TrkB extracellular region protein, HRP goat anti-mouse Fc detection
# Procedure: as §1
# (§5) Example 7: Detection of the Binding of Murine Anti-TrkA Antibodies to TrkA Proteins of the Same Family Each well of a 96-well microtiter plate was coated with 50 ng of human TrkA extracellular region protein, human TrkB extracellular region protein (Beijing Yiqiao Shenzhou Technology Co., Ltd., 10047-H03H), human TrkC extracellular region protein (Beijing Yiqiao Shenzhou Technology Co., Ltd., 10048-H03H). The bindings of the anti-TrkA antibodies to human TrkA and the two proteins of the same family were detected according to the method described in Example 2.
# T5 sequence (Q16620 32-430): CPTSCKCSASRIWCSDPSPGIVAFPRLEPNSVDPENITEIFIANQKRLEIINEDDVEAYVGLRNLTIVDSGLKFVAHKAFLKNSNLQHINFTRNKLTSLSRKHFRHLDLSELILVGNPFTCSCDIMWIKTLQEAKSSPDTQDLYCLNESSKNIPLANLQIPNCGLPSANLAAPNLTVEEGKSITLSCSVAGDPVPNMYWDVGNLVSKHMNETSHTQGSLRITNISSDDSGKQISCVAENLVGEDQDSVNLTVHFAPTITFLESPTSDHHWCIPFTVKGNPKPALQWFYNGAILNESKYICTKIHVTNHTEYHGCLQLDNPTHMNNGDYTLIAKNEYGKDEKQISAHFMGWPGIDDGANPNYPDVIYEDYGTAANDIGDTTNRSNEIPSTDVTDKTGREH
row,Binder,binding result
1,B1,no binding (tested: 66.67 nM)
2,B2,no binding (tested: 66.67 nM)
3,B3,no binding (tested: 66.67 nM)
4,B4,no binding (tested: 66.67 nM)
5,B5,no binding (tested: 66.67 nM)

# Molecular target: T6, human TrkC extracellular region protein (Yiqiao Shenzhou 10048-H03H) (human, UniProt Q16288 32-429)
# T6 construct: extracellular domain; Bought protein
# Assay: ELISA, plate coated with human TrkC extracellular region protein, HRP goat anti-mouse Fc detection
# Procedure: as §1, §5
row,Binder,binding result
1,B1,no binding (tested: 66.67 nM)
2,B2,no binding (tested: 66.67 nM)
3,B3,no binding (tested: 66.67 nM)
4,B4,no binding (tested: 66.67 nM)
5,B5,no binding (tested: 66.67 nM)

# Molecular target: T1, full-length human TrkA expressed on …
# Assay: cell-based or functional assay
# Remark: another data set of the same source
row,Binder,IC50 of inhibiting NGF-induced TF-1 cell proliferation [nM]
1,B1,6.49
2,B2,1.09
3,B3,1.39
4,B4,1.3
5,B5,2.14

# Molecular target: T2, TrkA extracellular region (33-417) …
# Assay: competition ELISA, coated TrkA (33-417)-hFc, antibody titrated, competitor biotin-labeled human NGF
# Procedure: Each well of a 96-well microtiter plate was coated with 50 ng of TrkA extracellular region (33-417) protein fused to human Fc, washed three times and blocked with 3% BSA for 1 hour. […] Each well was added with 100 μl and incubated at room temperature for 30 minutes. […] Streptavidin-labeled horseradish peroxidase (Streptavidin-HRP, Biolegend, 405210) was added and incubated for 0.5 hours. After washing three times, TMB was added to the plate, and the absorbance at 450 nm was read by a microplate reader after the color development was terminated.
row,Binder,IC50 [nM]
1,B1,1.76
2,B2,1.9
3,B3,2.04
4,B4,2.35
5,B5,1.5

# Molecular target: T7, rat TrkA extracellular region fusion protein (fused to human Fc) (Yiqiao Shenzhou 80243-R03H) (rat, UniProt P35739 33-418)
# T7 construct: extracellular domain; Bought fusion protein
# Assay: ELISA, plate coated with rat TrkA extracellular region-hFc, HRP goat anti-mouse Fc detection
# Procedure: as §1, §2
# T7 sequence (P35739 33-418, stated change not applied): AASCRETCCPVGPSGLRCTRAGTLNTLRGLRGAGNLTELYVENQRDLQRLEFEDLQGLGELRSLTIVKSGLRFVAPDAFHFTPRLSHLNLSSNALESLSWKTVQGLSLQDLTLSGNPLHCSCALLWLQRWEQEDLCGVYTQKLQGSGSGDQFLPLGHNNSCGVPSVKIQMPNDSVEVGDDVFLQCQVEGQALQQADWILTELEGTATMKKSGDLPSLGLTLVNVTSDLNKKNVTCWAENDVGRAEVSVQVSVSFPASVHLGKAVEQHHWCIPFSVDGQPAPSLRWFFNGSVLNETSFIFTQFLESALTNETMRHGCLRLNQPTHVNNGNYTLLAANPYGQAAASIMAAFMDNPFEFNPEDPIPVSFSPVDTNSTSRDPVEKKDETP
row,Binder,binding result
1,B1,binds
2,B2,binds
3,B3,binds
4,B4,binds
5,B5,binds

# Molecular target: T1, full-length human TrkA expressed on …
# Assay: cell-based or functional assay
# Remark: another data set of the same source
row,Binder,IC50 of inhibiting NGF-induced TrkA/Ba/F3 cell proliferation [nM]
1,B1,0.422
2,B2,1.65
3,B3,1.54
4,B4,1.25
5,B5,0.413

# Molecular target: T8, human TrkB expressed on CHO cells (TrkB/CHO, ThermoFisher K1491) (human, UniProt Q16620 32-822)
# T8 construct: whole, on cells
# Assay: flow cytometry on TrkB/CHO cells, FITC goat anti-human Fc
# Procedure: as §3, §4
# T8 sequence (Q16620 32-822): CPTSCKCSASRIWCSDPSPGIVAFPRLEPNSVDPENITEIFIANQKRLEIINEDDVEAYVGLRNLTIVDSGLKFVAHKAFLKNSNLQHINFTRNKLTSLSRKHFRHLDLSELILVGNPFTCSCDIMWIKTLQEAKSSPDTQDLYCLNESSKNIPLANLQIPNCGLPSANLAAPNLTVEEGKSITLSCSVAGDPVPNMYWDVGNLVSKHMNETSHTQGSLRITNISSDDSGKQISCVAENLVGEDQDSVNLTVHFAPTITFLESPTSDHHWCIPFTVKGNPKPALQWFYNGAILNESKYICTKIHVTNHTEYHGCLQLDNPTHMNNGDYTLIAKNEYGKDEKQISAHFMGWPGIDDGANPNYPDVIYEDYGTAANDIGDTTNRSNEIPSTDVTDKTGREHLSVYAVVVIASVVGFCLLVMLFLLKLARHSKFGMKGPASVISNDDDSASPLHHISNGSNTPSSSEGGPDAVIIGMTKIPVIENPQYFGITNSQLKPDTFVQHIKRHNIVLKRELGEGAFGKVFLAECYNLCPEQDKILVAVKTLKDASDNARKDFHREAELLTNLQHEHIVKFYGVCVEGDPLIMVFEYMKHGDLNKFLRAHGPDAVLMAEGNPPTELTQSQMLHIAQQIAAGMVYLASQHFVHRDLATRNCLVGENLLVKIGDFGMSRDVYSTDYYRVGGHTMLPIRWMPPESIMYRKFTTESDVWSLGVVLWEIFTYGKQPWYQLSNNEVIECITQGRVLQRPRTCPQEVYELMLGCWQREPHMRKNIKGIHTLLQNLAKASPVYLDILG
row,Binder,binding result
1,B6,no binding
